Starred links: 1 amine or outer side, 2 acyl side, 3 side chain; linkers in the order of their positions; H or OH if unused. Non-standard residues stand in square brackets, D forms with d. Groups on a side chain read outwards from the residue. No end group written: not given here. *: point of attachment. C20 diacid = O=C(O)CCCCCCCCCCCCCCCCCCC(=O)*; C18 diacid = O=C(O)CCCCCCCCCCCCCCCCC(=O)*; γGlu = O=C(O)[C@H](CCC(=O)[*:2])N[*:1]; αMeF = C[C@](N)(Cc1ccccc1)C(=O)O; AEEA = NCCOCCOCC(=O)O; Aib = CC(C)(N)C(=O)O
B1: Peptide 419 (peptide)
peptide: H[Aib]QGTFTSDVSK[αMeF]LDTK([AEEA-AEEA-γGlu-C18 diacid])RAQDFVRWLE[Aib]E-OH
modifications: N-terminus assumed
SMILES: CC(C)C[C@H](NC(=O)[C@H](Cc1c[nH]c2ccccc12)NC(=O)[C@H](CCCNC(=N)N)NC(=O)[C@@H](NC(=O)[C@H](Cc1ccccc1)NC(=O)[C@H](CC(=O)O)NC(=O)[C@H](CCC(N)=O)NC(=O)[C@H](C)NC(=O)[C@H](CCCNC(=N)N)NC(=O)[C@H](CCCCNC(=O)COCCOCCNC(=O)COCCOCCNC(=O)CC[C@H](NC(=O)CCCCCCCCCCCCCCCCC(=O)O)C(=O)O)NC(=O)[C@@H](NC(=O)[C@H](CC(=O)O)NC(=O)[C@H](CC(C)C)NC(=O)[C@](C)(Cc1ccccc1)NC(=O)[C@H](CCCCN)NC(=O)[C@H](CO)NC(=O)[C@@H](NC(=O)[C@H](CC(=O)O)NC(=O)[C@H](CO)NC(=O)[C@@H](NC(=O)[C@H](Cc1ccccc1)NC(=O)[C@@H](NC(=O)CNC(=O)[C@H](CCC(N)=O)NC(=O)C(C)(C)NC(=O)[C@@H](N)Cc1c[nH]cn1)[C@@H](C)O)[C@@H](C)O)C(C)C)[C@@H](C)O)C(C)C)C(=O)N[C@@H](CCC(=O)O)C(=O)NC(C)(C)C(=O)N[C@@H](CCC(=O)O)C(=O)O
B2: Peptide 417 (peptide)
peptide: H[Aib]QGTFTSDVSK[αMeF]LDTK([AEEA-AEEA-γGlu-γGlu-C18 diacid])RAQDFVAWLEA[Aib]G-OH
modifications: N-terminus assumed
SMILES: CC(C)C[C@H](NC(=O)[C@H](Cc1c[nH]c2ccccc12)NC(=O)[C@H](C)NC(=O)[C@@H](NC(=O)[C@H](Cc1ccccc1)NC(=O)[C@H](CC(=O)O)NC(=O)[C@H](CCC(N)=O)NC(=O)[C@H](C)NC(=O)[C@H](CCCNC(=N)N)NC(=O)[C@H](CCCCNC(=O)COCCOCCNC(=O)COCCOCCNC(=O)CC[C@H](NC(=O)CC[C@H](NC(=O)CCCCCCCCCCCCCCCCC(=O)O)C(=O)O)C(=O)O)NC(=O)[C@@H](NC(=O)[C@H](CC(=O)O)NC(=O)[C@H](CC(C)C)NC(=O)[C@](C)(Cc1ccccc1)NC(=O)[C@H](CCCCN)NC(=O)[C@H](CO)NC(=O)[C@@H](NC(=O)[C@H](CC(=O)O)NC(=O)[C@H](CO)NC(=O)[C@@H](NC(=O)[C@H](Cc1ccccc1)NC(=O)[C@@H](NC(=O)CNC(=O)[C@H](CCC(N)=O)NC(=O)C(C)(C)NC(=O)[C@@H](N)Cc1c[nH]cn1)[C@@H](C)O)[C@@H](C)O)C(C)C)[C@@H](C)O)C(C)C)C(=O)N[C@@H](CCC(=O)O)C(=O)N[C@@H](C)C(=O)NC(C)(C)C(=O)NCC(=O)O
B3: Peptide 420 (peptide)
peptide: H[Aib]QGTFTSDVSK[αMeF]LDKK([AEEA-AEEA-γGlu-C18 diacid])RAQDFVRWLL[Aib]E-NH2
modifications: N-terminus assumed
SMILES: CC(C)C[C@H](NC(=O)[C@H](Cc1c[nH]c2ccccc12)NC(=O)[C@H](CCCNC(=N)N)NC(=O)[C@@H](NC(=O)[C@H](Cc1ccccc1)NC(=O)[C@H](CC(=O)O)NC(=O)[C@H](CCC(N)=O)NC(=O)[C@H](C)NC(=O)[C@H](CCCNC(=N)N)NC(=O)[C@H](CCCCNC(=O)COCCOCCNC(=O)COCCOCCNC(=O)CC[C@H](NC(=O)CCCCCCCCCCCCCCCCC(=O)O)C(=O)O)NC(=O)[C@H](CCCCN)NC(=O)[C@H](CC(=O)O)NC(=O)[C@H](CC(C)C)NC(=O)[C@](C)(Cc1ccccc1)NC(=O)[C@H](CCCCN)NC(=O)[C@H](CO)NC(=O)[C@@H](NC(=O)[C@H](CC(=O)O)NC(=O)[C@H](CO)NC(=O)[C@@H](NC(=O)[C@H](Cc1ccccc1)NC(=O)[C@@H](NC(=O)CNC(=O)[C@H](CCC(N)=O)NC(=O)C(C)(C)NC(=O)[C@@H](N)Cc1c[nH]cn1)[C@@H](C)O)[C@@H](C)O)C(C)C)C(C)C)C(=O)N[C@@H](CC(C)C)C(=O)NC(C)(C)C(=O)N[C@@H](CCC(=O)O)C(N)=O
B4: Peptide 418 (peptide)
peptide: H[Aib]QGTFTSDVSK[αMeF]LDTK([AEEA-AEEA-γGlu-γGlu-C20 diacid])RAQDFVAWLEA[Aib]G-OH
modifications: N-terminus assumed
SMILES: CC(C)C[C@H](NC(=O)[C@H](Cc1c[nH]c2ccccc12)NC(=O)[C@H](C)NC(=O)[C@@H](NC(=O)[C@H](Cc1ccccc1)NC(=O)[C@H](CC(=O)O)NC(=O)[C@H](CCC(N)=O)NC(=O)[C@H](C)NC(=O)[C@H](CCCNC(=N)N)NC(=O)[C@H](CCCCNC(=O)COCCOCCNC(=O)COCCOCCNC(=O)CC[C@H](NC(=O)CC[C@H](NC(=O)CCCCCCCCCCCCCCCCCCC(=O)O)C(=O)O)C(=O)O)NC(=O)[C@@H](NC(=O)[C@H](CC(=O)O)NC(=O)[C@H](CC(C)C)NC(=O)[C@](C)(Cc1ccccc1)NC(=O)[C@H](CCCCN)NC(=O)[C@H](CO)NC(=O)[C@@H](NC(=O)[C@H](CC(=O)O)NC(=O)[C@H](CO)NC(=O)[C@@H](NC(=O)[C@H](Cc1ccccc1)NC(=O)[C@@H](NC(=O)CNC(=O)[C@H](CCC(N)=O)NC(=O)C(C)(C)NC(=O)[C@@H](N)Cc1c[nH]cn1)[C@@H](C)O)[C@@H](C)O)C(C)C)[C@@H](C)O)C(C)C)C(=O)N[C@@H](CCC(=O)O)C(=O)N[C@@H](C)C(=O)NC(C)(C)C(=O)NCC(=O)O
B5: Peptide 421 (peptide)
peptide: H[Aib]QGTFTSDVSK[αMeF]LDRK([AEEA-AEEA-γGlu-C18 diacid])RAQDFVRWLL[Aib]TE-OH
modifications: N-terminus assumed
SMILES: CC(C)C[C@H](NC(=O)[C@H](Cc1c[nH]c2ccccc12)NC(=O)[C@H](CCCNC(=N)N)NC(=O)[C@@H](NC(=O)[C@H](Cc1ccccc1)NC(=O)[C@H](CC(=O)O)NC(=O)[C@H](CCC(N)=O)NC(=O)[C@H](C)NC(=O)[C@H](CCCNC(=N)N)NC(=O)[C@H](CCCCNC(=O)COCCOCCNC(=O)COCCOCCNC(=O)CC[C@H](NC(=O)CCCCCCCCCCCCCCCCC(=O)O)C(=O)O)NC(=O)[C@H](CCCNC(=N)N)NC(=O)[C@H](CC(=O)O)NC(=O)[C@H](CC(C)C)NC(=O)[C@](C)(Cc1ccccc1)NC(=O)[C@H](CCCCN)NC(=O)[C@H](CO)NC(=O)[C@@H](NC(=O)[C@H](CC(=O)O)NC(=O)[C@H](CO)NC(=O)[C@@H](NC(=O)[C@H](Cc1ccccc1)NC(=O)[C@@H](NC(=O)CNC(=O)[C@H](CCC(N)=O)NC(=O)C(C)(C)NC(=O)[C@@H](N)Cc1c[nH]cn1)[C@@H](C)O)[C@@H](C)O)C(C)C)C(C)C)C(=O)N[C@@H](CC(C)C)C(=O)NC(C)(C)C(=O)N[C@H](C(=O)N[C@@H](CCC(=O)O)C(=O)O)[C@@H](C)O

Experiments:
[1] = molecular target: human glucagon receptor (hGCGR) (human, UniProt P47871 26-477); assay: cell-based or functional assay
[2] = molecular target: human GLP-1 receptor (hGLP-1R) (human, UniProt P43220 24-463); assay: cell-based or functional assay

human glucagon receptor (hGCGR), sequence (P47871 26-477): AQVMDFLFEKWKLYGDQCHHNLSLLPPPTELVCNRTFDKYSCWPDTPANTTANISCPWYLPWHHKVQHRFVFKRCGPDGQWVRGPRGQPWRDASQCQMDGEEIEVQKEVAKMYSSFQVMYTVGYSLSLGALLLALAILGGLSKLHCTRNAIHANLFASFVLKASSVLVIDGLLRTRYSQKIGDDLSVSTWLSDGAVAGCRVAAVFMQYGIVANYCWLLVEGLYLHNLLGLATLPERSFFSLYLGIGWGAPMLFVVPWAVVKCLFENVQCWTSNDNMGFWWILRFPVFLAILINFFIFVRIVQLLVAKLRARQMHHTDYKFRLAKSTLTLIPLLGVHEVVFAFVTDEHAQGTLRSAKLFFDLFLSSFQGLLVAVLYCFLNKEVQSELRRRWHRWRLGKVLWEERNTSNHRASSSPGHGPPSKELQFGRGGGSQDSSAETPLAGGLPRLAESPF

| Binder | hGluc-R EC50 (pM) [1] | hGLP-1R EC50 (pM) [2] |
| --- | --- | --- |
| B1 | 264 pM | 96.9 pM |
| B2 | 16.4 pM | 33.9 pM |
| B3 | 36.9 pM | 23.1 pM |
| B4 | 222 pM | 88.1 pM |
| B5 | 180 pM | 87.3 pM |
